# T1: human OX40 on cells (human, UniProt P43489 29-277)
# T1 sequence (looked up): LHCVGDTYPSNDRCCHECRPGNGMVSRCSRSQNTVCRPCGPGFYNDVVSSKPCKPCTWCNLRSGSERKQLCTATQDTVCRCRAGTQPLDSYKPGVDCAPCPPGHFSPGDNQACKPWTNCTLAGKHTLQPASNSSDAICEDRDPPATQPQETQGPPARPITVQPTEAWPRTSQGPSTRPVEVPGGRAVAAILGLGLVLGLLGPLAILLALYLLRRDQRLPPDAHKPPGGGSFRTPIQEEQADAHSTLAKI
# B1: Tetra-19 (bispecific antibody, human IgG1, kappa, L234A L235A)
# heavy 1: QVQLVQSGAEVKKPGASVKVSCKASGYTFTRYYMHWVRQAPGQGLEWMGWIYPGEGSTKYAQKFQGRVTMTRDTSISTAYMELSRLRSDDTAVYYCAREYGNYDYWGQGTLVTVSSASTKGPSVFPLAPSSKSTSGGTAALGCLVKDYFPEPVTVSWNSGALTSGVHTFPAVLQSSGLYSLSSVVTVPSSSLGTQTYICNVNHKPSNTKVDKKVEPKSCDKTHTCPPCPAPEAAGGPSVFLFPPKPKDTLMISRTPEVTCVVVDVSHEDPEVQFKWYVDGVEVHNAKTKPREEQYNSTFRVVSVLTVLHQDWLNGKEYKCKVSNKALPAPIEKTISKTKGQPREPAVYTLPPSREEMTKNQVKLVCLVTGFYPSDIAVEWESSGQPENNYYTTPPMLDSDGSFSLVSWLNVDKSRWQQGNIFSCSVMHEALHNRFTQKSLSLSPGGGGGTEVQLVESGGGLVQPGGSLRLSCAVSGYSITSDYAWNWIRQAPGKCLEWMGYISYSGSTAYNPSLKSRITISRDTSKNTFYLQMSSLRAEDTAVYYCARGPYNYLAYWGQGTLVTVSSGGGGSGGGGSGGGGSDIQLTQSPSSLSASVGDRVTITCRASESVDNYGISFMNWFQQKPGKAPKLLIYAASNQKSGVPSRFSGSGSGTDFTLTISSLQPEDFATYFCQQSKEVPLTFGCGTKVEIL
# heavy 2: QVQLVQSGAEVKKPGASVKVSCKASGYTFTRYYMHWVRQAPGQGLEWMGWIYPGEGSTKYAQKFQGRVTMTRDTSISTAYMELSRLRSDDTAVYYCAREYGNYDYWGQGTLVTVSSASTKGPSVFPLAPSSKSTSGGTAALGCLVKDYFPEPVTVSWNSGALTSGVHTFPAVLQSSGLYSLSSVVTVPSSSLGTQTYICNVNHKPSNTKVDKKVEPKSCDKTHTCPPCPAPEAAGGPSVFLFPPKPKDTLMISRTPEVTCVVVDVSHEDPEVKFNWYVDGVEVHNAKTKPREEQYNSTYRVVSVLTVLHQDWLNGKEYKCKVSNKALPAPIEKTISKAKGQPREPEVATFPPSRDELTKNQVTLVCLVTGFYPSDIAVEWESNGQPENNYKTDPPLLESQGSFALSSRLRVDKSRWQQGNVFSCSVMHEALHNHYTQKSLSLSPGGGGGTQVQLVQSGAEVKKPGASVKVSCKASGYTFTRYYMHWVRQAPGQGLEWMGWIYPGEGSTKYAQKFQGRVTMTRDTSISTAYMELSRLRSDDTAVYYCAREYGNYDYWGQGTLVTVSSASTKGPSVFPLAPSSKSTSGGTAALGCLVKDYFPEPVTVSWNSGALTSGVHTFPAVLQSSGLYSLSSVVTVPSSSLGTQTYICNVNHKPSNTKVDKKVEPKSC
# light: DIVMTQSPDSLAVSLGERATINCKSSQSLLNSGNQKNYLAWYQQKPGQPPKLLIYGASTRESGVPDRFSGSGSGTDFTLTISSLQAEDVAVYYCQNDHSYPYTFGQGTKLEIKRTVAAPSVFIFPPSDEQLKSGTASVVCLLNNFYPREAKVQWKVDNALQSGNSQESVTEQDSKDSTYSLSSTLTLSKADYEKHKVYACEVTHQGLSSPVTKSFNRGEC
# B2: Tri-8 (bispecific antibody, human IgG1, kappa, L234A L235A)
# heavy 1: B1 heavy 1
# heavy 2: QVQLVQSGAEVKKPGASVKVSCKASGYTFTRYYMHWVRQAPGQGLEWMGWIYPGEGSTKYAQKFQGRVTMTRDTSISTAYMELSRLRSDDTAVYYCAREYGNYDYWGQGTLVTVSSASTKGPSVFPLAPSSKSTSGGTAALGCLVKDYFPEPVTVSWNSGALTSGVHTFPAVLQSSGLYSLSSVVTVPSSSLGTQTYICNVNHKPSNTKVDKKVEPKSCDKTHTCPPCPAPEAAGGPSVFLFPPKPKDTLMISRTPEVTCVVVDVSHEDPEVKFNWYVDGVEVHNAKTKPREEQYNSTYRVVSVLTVLHQDWLNGKEYKCKVSNKALPAPIEKTISKAKGQPREPEVATFPPSRDELTKNQVTLVCLVTGFYPSDIAVEWESNGQPENNYKTDPPLLESQGSFALSSRLRVDKSRWQQGNVFSCSVMHEALHNHYTQKSLSLSPGK
# light: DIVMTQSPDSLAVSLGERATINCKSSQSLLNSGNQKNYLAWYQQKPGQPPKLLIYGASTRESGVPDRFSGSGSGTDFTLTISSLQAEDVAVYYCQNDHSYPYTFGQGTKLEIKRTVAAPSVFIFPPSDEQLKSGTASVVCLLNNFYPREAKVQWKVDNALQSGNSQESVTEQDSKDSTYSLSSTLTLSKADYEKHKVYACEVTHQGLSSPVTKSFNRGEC
# B3: Tetra-21 (bispecific antibody, human IgG1, kappa, L234A L235A)
# heavy 1: B1 heavy 1
# heavy 2: EVQLVESGGGLVQPGGSLRLSCAVSGYSITSDYAWNWIRQAPGKCLEWMGYISYSGSTAYNPSLKSRITISRDTSKNTFYLQMNSLRAEDTAVYYCARGPYNYLAYWGQGTLVTVSSGGGGSGGGGSGGGGSDIQLTQSPSSLSASVGDRVTITCRASESVDNYGISFMNWFQQKPGKAPKLLIYAASNQKSGVPSRFSGSGSGTDFTLTISSLQPEDFATYFCQQSKEVPLTFGCGTKVEIKRTGGGGTDKTHTCPPCPAPEAAGGPSVFLFPPKPKDTLMISRTPEVTCVVVDVSHEDPEVKFNWYVDGVEVHNAKTKPREEQYNSTYRVVSVLTVLHQDWLNGKEYKCKVSNKALPAPIEKTISKAKGQPREPEVATFPPSRDELTKNQVTLVCLVTGFYPSDIAVEWESNGQPENNYKTDPPLLESQGSFALSSRLRVDKSRWQQGNVFSCSVMHEALHNHYTQKSLSLSPGGGGGTQVQLVQSGAEVKKPGASVKVSCKASGYTFTRYYMHWVRQAPGQGLEWMGWIYPGEGSTKYAQKFQGRVTMTRDTSISTAYMELSRLRSDDTAVYYCAREYGNYDYWGQGTLVTVSSASTKGPSVFPLAPSSKSTSGGTAALGCLVKDYFPEPVTVSWNSGALTSGVHTFPAVLQSSGLYSLSSVVTVPSSSLGTQTYICNVNHKPSNTKVDKKVEPKSC
# light: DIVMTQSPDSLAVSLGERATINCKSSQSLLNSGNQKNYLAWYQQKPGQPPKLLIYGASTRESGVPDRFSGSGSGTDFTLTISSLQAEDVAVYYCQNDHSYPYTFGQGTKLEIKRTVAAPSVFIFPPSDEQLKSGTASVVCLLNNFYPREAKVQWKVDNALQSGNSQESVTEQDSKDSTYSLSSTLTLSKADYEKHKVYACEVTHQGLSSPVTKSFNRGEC
# B4: 7H11 IgG1 LALA (antibody, V domains shown)
# VH: QVQLVQSGAEVKKPGASVKVSCKASGYTFTRYYMHWVRQAPGQGLEWMGWIYPGDGSTKYAQKFQGRVTMTRDTSISTAYMELSRLRSDDTAVYYCAREYGNYDYWGQGTLVTVSS
# VL: DIVMTQSPDSLAVSLGERATINCKSSQSLLNSGNQKNYLAWYQQKPGQPPKLLIYGASTRESGVPDRFSGSGSGTDFTLTISSLQAEDVAVYYCQNDHSYPYTFGQGTKLEIKR
# B5: 2H6 IgG1 LALA (antibody)
# heavy: not shown
# light: DIQLTQSPSSLSASVGDRVTITCRASESVDNYGISFMNWFQQKPGKAPKLLIYAASNQKSGVPSRFSGSGSGTDFTLTISSLQPEDFATYFCQQSKEVPLTFGQGTKVEIKRTVAAPSVFIFPPSDEQLKSGTASVVCLLNNFYPREAKVQWKVDNALQSGNSQESVTEQDSKDSTYSLSSTLTLSKADYEKHKVYACEVTHQGLSSPVTKSFNRGEC
# B6: Tetra-18 (antibody, human IgG1, kappa, L234A L235A)
# heavy: not shown
# light: B5 light
# B7: Tetra-15 (antibody, human IgG1, kappa, L234A L235A)
# heavy: not shown
# light: B5 light
# B8: Tetra-14 (bispecific antibody, human IgG1, kappa, L234A L235A)
# heavy: not shown
# light: B5 light
# B9: Tetra-20 (bispecific antibody, human IgG1, kappa, L234A L235A)
# heavy 1: EVQLVESGGGLVQPGGSLRLSCAVSGYSITSDYAWNWIRQAPGKGLEWMGYISYSGSTAYNPSLKSRITISRDTSKNTFYLQMSSLRAEDTAVYYCARGPYNYLAYWGQGTLVTVSSASTKGPSVFPLAPSSKSTSGGTAALGCLVKDYFPEPVTVSWNSGALTSGVHTFPAVLQSSGLYSLSSVVTVPSSSLGTQTYICNVNHKPSNTKVDKKVEPKSCDKTHTCPPCPAPEAAGGPSVFLFPPKPKDTLMISRTPEVTCVVVDVSHEDPEVQFKWYVDGVEVHNAKTKPREEQYNSTFRVVSVLTVLHQDWLNGKEYKCKVSNKALPAPIEKTISKTKGQPREPAVYTLPPSREEMTKNQVKLVCLVTGFYPSDIAVEWESSGQPENNYYTTPPMLDSDGSFSLVSWLNVDKSRWQQGNIFSCSVMHEALHNRFTQKSLSLSPGGGGGTQVQLVQSGAEVKKPGASVKVSCKASGYTFTRYYMHWVRQAPGQCLEWMGWIYPGEGSTKYAQKFQGRVTMTRDTSISTAYMELSRLRSDDTAVYYCAREYGNYDYWGQGTLVTVSSGGGGSGGGGSGGGGSDIVMTQSPDSLAVSLGERATINCKSSQSLLNSGNQKNYLAWYQQKPGQPPKLLIYGASTRESGVPDRFSGSGSGTDFTLTISSLQAEDVAVYYCQNDHSYPYTFGCGTKLEIL
# heavy 2: EVQLVESGGGLVQPGGSLRLSCAVSGYSITSDYAWNWIRQAPGKGLEWMGYISYSGSTAYNPSLKSRITISRDTSKNTFYLQMNSLRAEDTAVYYCARGPYNYLAYWGQGTLVTVSSASTKGPSVFPLAPSSKSTSGGTAALGCLVKDYFPEPVTVSWNSGALTSGVHTFPAVLQSSGLYSLSSVVTVPSSSLGTQTYICNVNHKPSNTKVDKKVEPKSCDKTHTCPPCPAPEAAGGPSVFLFPPKPKDTLMISRTPEVTCVVVDVSHEDPEVKFNWYVDGVEVHNAKTKPREEQYNSTYRVVSVLTVLHQDWLNGKEYKCKVSNKALPAPIEKTISKAKGQPREPEVATFPPSRDELTKNQVTLVCLVTGFYPSDIAVEWESNGQPENNYKTDPPLLESDGSFALSSRLRVDKSRWQQGNVFSCSVMHEALHNHYTQKSLSLSPGGGGGTEVQLVESGGGLVQPGGSLRLSCAVSGYSITSDYAWNWIRQAPGKGLEWMGYISYSGSTAYNPSLKSRITISRDTSKNTFYLQMNSLRAEDTAVYYCARGPYNYLAYWGQGTLVTVSSASTKGPSVFPLAPSSKSTSGGTAALGCLVKDYFPEPVTVSWNSGALTSGVHTFPAVLQSSGLYSLSSVVTVPSSSLGTQTYICNVNHKPSNTKVDKKVEPKSC
# light: B5 light
# Target: T1, human OX40 on cells
# Experiment: cell-based or functional assay
Binder,"% donor responder (>2), SEB assay, IL-2 release","Mean, normalized IL-2 release, SEB assay"
B1,0%,1
B2,0%,0.96
B3,8%,1.32
B4,6%,0.81
B5,25%,1.45
B6,0%,0.88
B7,0%,0.93
B8,40%,1.65
B9,0%,1.14
